Experimental data taken from US20240084003A1 (SIMCERE ZAIMING PHARMACEUTICAL, published 2024).

B1: HA22-hIgG1 (antibody, V domains shown)
VH: EVQLVESGGGLVKPGGSLKLSCAASGFAFSIYDMSWVRQTPEKCLEWVAYISSGGGTTYYPDTVKGRFTISRDNAKNTLYLQMSSLKSEDTAMYYCARHSGYGTHWGVLFAYWGQGTLVTVSA
VL: DIQMTQTTSSLSASLGDRVTISCRASQDISNYLNWYQQKPDGTVKLLIYYTSILHSGVPSRFSGSGSGTDYSLTISNLEQEDFATYFCQQGNTLPWTFGCGTKLEIKR
B2: F2.99.1 (antibody, human IgG1, lambda, V domains shown)
VH: QVTLKESGPGILQPSQTLSLTCSFSGFSLSTFPMGVGWIRQPSGKGLEWLAHIWWDDDEYYNPVLKSRLTISKDTSKKQVYLRIANVDTVDTATYYCTRANWDRWYFDVWGTGTTVTVSS
VL: QLVLTQSSSASFSLGASAKLTCTLSRQHSAYTIEWYQQQPLKPPKYVMEVKKDGSHSTGDGIPDRFSGSSSGADRYLSISNIQPEDEAIYICGVGDTIKEHFVFGGGTKVTVLG
notes: Human-murine chimeric IgG1, lambda
B3: F1.267.9 (antibody, human IgG1, kappa, V domains shown)
VH: EVQLQQSGPVLVKPGASVKMSCKASGYTFTDFYMNWAKQSHGKSLEWVGVINPYNGGINYNQKFKGKATLTVDKSSSTAYMEFNSLTSEDSAVYYCARRMEYHAMDYWGQGTSVTVSS
VL: DIVLTQSPASLAVSLGQRATISCRASESVDNYGFDFIHWYQQKPGQPPKLLIYRASNLESGIPARFSGSGSRPDFTLTINPVETDDVATYYCQQSIKDPWTFGGGTKLEIKR
notes: Human-murine chimeric IgG1, kappa
B4: F1.7.6 (antibody, human IgG1, kappa, V domains shown)
VH: EIQLQQSGPELVKPGTSVKVSCKASGYDFTRYNMYWVKQSHGKSLEWIGYIDPYNGDTRYNQKFKGKATLTVDKSSSTAYMHLNSLTSEDSAVYYCEAIYYDMEGYALDYWGQGTSVTVSS
VL: DIVMSQSPSSLAVSVGEKVTMSCKSSQSLLYSNNQKNYLAWYQQKPGQSPKKLIYWASTRESGVPDRLTGSGSGTDFTLTISSVTAEDLAVYYCQQFYSYPWTFGGGTKLEIKR
notes: as for B3

Legend:
human CD22 domain5-7-His [1] = molecular target: T1, human CD22 domain5-7-His (human, UniProt P20273 414-687); test: ELISA, plate coated with human CD22 domain5-7-His
T1 construct: also called hCD22 domain5-7-His; not shown: His tag
T1 sequence: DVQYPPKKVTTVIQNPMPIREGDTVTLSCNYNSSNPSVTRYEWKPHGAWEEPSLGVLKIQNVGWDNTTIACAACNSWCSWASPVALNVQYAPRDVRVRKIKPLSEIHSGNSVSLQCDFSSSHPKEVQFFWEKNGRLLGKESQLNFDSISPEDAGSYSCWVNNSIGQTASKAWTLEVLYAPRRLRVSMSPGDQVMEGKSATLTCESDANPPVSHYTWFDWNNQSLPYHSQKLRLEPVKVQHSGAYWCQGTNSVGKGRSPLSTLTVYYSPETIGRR

[2] = molecular target: T2, human CD22-ECD-His protein (human, UniProt P20273 20-687); test: SPR (Biacore), antibody captured on Protein A chip, CD22-ECD-His in solution
T2 construct: Recombinant, from HEK293E cells; also called hCD22-ECD-His; human CD22-His protein; not shown: His tag
T2 sequence: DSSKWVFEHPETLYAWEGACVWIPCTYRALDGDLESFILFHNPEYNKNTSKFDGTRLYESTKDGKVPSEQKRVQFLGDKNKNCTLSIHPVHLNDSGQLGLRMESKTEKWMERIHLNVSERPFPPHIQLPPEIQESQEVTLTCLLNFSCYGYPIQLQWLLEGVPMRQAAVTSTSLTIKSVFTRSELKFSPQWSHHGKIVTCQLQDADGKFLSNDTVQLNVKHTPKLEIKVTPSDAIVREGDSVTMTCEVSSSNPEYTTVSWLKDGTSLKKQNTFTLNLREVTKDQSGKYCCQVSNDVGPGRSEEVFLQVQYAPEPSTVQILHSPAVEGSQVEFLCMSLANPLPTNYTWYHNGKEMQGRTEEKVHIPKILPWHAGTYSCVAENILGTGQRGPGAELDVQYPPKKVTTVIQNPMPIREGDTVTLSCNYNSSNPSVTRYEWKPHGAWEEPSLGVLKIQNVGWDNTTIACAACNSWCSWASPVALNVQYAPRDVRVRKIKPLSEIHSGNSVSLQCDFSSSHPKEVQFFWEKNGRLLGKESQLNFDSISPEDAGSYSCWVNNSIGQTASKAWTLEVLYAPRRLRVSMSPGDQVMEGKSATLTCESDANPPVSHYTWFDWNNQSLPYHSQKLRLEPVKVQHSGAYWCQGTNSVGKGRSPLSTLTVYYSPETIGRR
Procedure, shortened: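 Antibody captured on Protein A chip, then human CD22-ECD-His injected for 240 s at 30 μL/min, 5 concentrations from 200 nM (1:1 dilution), dissociation up to 600 s, in HBS-EP+ at 25° C. Responses double-referenced; apparent KD and kinetic constants fitted to a Langmuir 1:1 model.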

[3] = molecular target: T3, rhesus monkey CD22-ECD-His protein (rhesus monkey, UniProt H9G1X2 18-686); test: SPR (Biacore), antibody captured on Protein A chip, rhesus CD22 in solution
T3 construct: extracellular domain; also called monkey CD22 protein
T3 sequence: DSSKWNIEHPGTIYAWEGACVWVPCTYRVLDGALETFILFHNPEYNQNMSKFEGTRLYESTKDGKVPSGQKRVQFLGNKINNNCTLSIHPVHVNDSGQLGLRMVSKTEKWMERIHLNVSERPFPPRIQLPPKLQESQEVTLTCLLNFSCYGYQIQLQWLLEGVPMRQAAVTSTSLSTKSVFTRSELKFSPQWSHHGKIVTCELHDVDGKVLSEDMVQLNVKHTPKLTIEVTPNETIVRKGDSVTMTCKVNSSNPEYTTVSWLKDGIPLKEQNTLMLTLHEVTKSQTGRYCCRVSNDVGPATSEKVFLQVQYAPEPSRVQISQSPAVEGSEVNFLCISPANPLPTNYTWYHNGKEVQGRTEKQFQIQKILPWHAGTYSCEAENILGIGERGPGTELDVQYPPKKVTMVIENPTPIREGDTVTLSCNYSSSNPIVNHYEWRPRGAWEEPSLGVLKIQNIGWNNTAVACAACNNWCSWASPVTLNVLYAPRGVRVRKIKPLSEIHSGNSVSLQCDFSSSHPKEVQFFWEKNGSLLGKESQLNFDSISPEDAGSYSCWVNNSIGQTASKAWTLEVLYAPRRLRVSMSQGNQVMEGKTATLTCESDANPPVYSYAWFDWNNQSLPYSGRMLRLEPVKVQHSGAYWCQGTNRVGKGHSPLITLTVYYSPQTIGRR

[4] = molecular target: T4, human CD22-ECD-His protein (human, UniProt P20273 20-687); test: ELISA, human CD22-ECD-His coated
T4 construct: Made in house in HEK293E; also called hCD22-ECD-His; recombinant human CD22-ECD His protein; not shown: His tag
T4 sequence: T2 sequence
Description: (§1) In order to detect the binding activity of CD22 human-murine chimeric antibodies to CD22 protein, the purified human CD22-ECD-His protein obtained in Example 2 was diluted with PBS to a final concentration of 2 μg/mL, and then added to 96-well ELISA plate at 100 μl/well. The plate was sealed with plastic film and incubated overnight at 4° C., the plate was washed 2 times with PBS the next day, and then a blocking solution [PBS+2% (w/w) BSA] was added for blocking at room temperature for 2 hours. […] After incubation at 37° C. for 2 hours, the plate was washed 3 times with PBS. HRP (horseradish peroxidase)-labeled secondary antibody (purchased from Sigma, catalog number: A0170) was added, and incubated at 37° C. for 2 hours, and the plate was washed 5 times with PBS. TMB substrate was added at 50 μl/well, and incubated at room temperature for 30 minutes, then a stop solution (1.0 N HCl) was added at 50 μl/well.

[5] = molecular target: T5, murine CD22 protein (ACROBiosystems, SI2-M52Ha) (murine, UniProt P35329 22-708); test: ELISA, murine CD22-ECD-His coated
T5 construct: extracellular domain; also called murine CD22-ECD; murine CD22-ECD-His
T5 sequence (looked up): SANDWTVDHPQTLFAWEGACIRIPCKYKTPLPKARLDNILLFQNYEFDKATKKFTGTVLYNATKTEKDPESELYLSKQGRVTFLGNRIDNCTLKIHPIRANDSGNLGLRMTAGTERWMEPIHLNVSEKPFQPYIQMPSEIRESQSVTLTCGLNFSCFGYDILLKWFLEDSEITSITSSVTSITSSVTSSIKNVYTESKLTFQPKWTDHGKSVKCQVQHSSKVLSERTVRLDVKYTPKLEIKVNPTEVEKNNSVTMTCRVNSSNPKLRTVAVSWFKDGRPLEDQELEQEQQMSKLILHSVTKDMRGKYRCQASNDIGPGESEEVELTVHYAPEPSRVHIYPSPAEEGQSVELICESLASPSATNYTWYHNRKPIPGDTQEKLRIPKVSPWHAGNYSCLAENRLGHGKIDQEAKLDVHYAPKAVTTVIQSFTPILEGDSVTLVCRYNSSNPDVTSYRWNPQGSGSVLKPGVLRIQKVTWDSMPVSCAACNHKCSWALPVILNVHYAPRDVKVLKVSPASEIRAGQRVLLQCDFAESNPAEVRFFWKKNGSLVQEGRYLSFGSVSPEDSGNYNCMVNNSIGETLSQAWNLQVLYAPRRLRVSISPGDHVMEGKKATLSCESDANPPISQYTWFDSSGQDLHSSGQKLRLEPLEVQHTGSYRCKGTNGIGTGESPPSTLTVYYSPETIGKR
Description: as §1
In order to detect the species cross-binding activity of the chimeric antibodies, an ELISA plate was coated with commercial murine CD22 protein (ACROBiosystems, catalog number: SI2-M52Ha) and monkey CD22 protein (ACROBiosystems, catalog number: SI2-R52Ha), respectively, and the ELISA detection was performed according to the method in Example 5.1.

[6] = molecular target: T4, human CD22-ECD-His protein; test: ELISA, Ab 100.00 nM
Description: as §1

[7] = molecular target: T4, human CD22-ECD-His protein; test: ELISA, Ab 0.0001 nM
Description: as §1

[8] = molecular target: T4, human CD22-ECD-His protein; test: ELISA, Ab 0.001 nM
Description: as §1

[9] = molecular target: T4, human CD22-ECD-His protein; test: ELISA, Ab 0.10 nM
Description: as §1

human CD22 domain1-4-His = molecular target: T6, human CD22 domain1-4-His (human, UniProt P20273 20-425); test: ELISA, human CD22 domain1-4-His coated
T6 construct: also called hCD22 domain1-4-His; not shown: His tag
T6 sequence: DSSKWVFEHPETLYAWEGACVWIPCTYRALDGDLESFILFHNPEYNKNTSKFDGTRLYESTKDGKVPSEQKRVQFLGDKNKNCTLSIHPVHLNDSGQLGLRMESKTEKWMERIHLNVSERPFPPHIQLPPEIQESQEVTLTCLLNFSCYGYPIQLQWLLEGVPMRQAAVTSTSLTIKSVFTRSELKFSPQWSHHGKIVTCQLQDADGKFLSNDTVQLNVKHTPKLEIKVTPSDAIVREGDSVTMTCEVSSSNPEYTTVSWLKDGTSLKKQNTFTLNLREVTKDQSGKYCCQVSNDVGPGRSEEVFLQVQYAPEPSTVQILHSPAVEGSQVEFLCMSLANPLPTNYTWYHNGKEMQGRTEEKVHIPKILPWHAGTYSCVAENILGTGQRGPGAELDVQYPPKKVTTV

human CD22 domain5-7-His [10] = molecular target: T7, human CD22 domain5-7-His (human, UniProt P20273 414-687); test: ELISA, human CD22 domain5-7-His coated
T7 construct: also called hCD22 domain5-7-His; not shown: His tag
T7 sequence: T1 sequence

[11] = molecular target: T4, human CD22-ECD-His protein; test: ELISA, Ab 10.00 nM
Description: as §1

[12] = molecular target: T4, human CD22-ECD-His protein; test: ELISA, Ab 0.01 nM
Description: as §1

[13] = molecular target: T4, human CD22-ECD-His protein; test: ELISA, Ab 0.00001 nM
Description: as §1

| Binder | binding result (human CD22 domain5-7-His [1]) | Kd [2] [nM] | koff [2] [s⁻¹] | kon [2] [M⁻¹ s⁻¹] | Kd [3] [nM] | koff [3] [s⁻¹] | kon [3] [M⁻¹ s⁻¹] | EC50 (read off the curve) [4] [nM] | binding result [5] | OD450 [6] [OD450] | OD450 [7] [OD450] | OD450 [8] [OD450] | OD450 [9] [OD450] | EC50 (read off the curve) (human CD22 domain1-4-His) [nM] | binding result (human CD22 domain5-7-His [10]) | OD450 [11] [OD450] | OD450 [12] [OD450] | OD450 [13] [OD450] |
| --- | --- | --- | --- | --- | --- | --- | --- | --- | --- | --- | --- | --- | --- | --- | --- | --- | --- | --- |
| B1 | no binding | 1.33 | 8.96e-05 | 67400 | 3.41 | 0.000234 | 68600 |  |  |  |  |  |  |  |  |  |  |  |
| B2 |  |  |  |  |  |  |  | ~0.04 | no binding (tested: 100 nM) | 2.1 | 0.27 | 0.51 | 2.1 | ~0.05 | no binding (tested: 100 nM) | 2.06 | 1.45 | 0.08 |
| B3 |  |  |  |  |  |  |  | ~0.08 | no binding (tested: 100 nM) | 2.56 | 0.1 | 0.34 | 2.39 | ~0.2 | no binding (tested: 100 nM) | 2.55 | 1.47 | 0.06 |
| B4 |  |  |  |  |  |  |  | ~0.02 | no binding (tested: 100 nM) | 2.88 | 0.34 | 1.19 | 2.51 | ~0.03 | no binding (tested: 100 nM) | 2.46 | 2.2 | 0.15 |
